Patent US20140120098A1 (DANSK UNIVERSITET, published 2014)
Positions count from the first letter of the chain named. Numbers in names are those of the source.

B1: FIBCD1 FReD A432V (receptor)
chain: ATGSRPRDCLDVLLSGQQDDGVYSVFPTHYPAGFQVYCDMRTDGGGWTVFQRREDGSVNFFRGWDAYRDGFGRLTGEHWLGLKRIHALTTQAAYELHVDLEDFENGTAYARYGSFGVGLFSVDPEEDGYPLTVADYSGTAGDSLLKHSGMRFTTKDRDSDHSENNCAAFYRGAWWYRNCHTSNLNGQYLRGAHASYVDGVEWSSWTGWQYSLKFSEMKIRPVREDR
B2: FIBCD1 FReD H415G (receptor)
chain: B1 chain with H180G, V197A

Target: T1, acetylated BSA (bovine, UniProt P02769 25-607, acetylated (N-acetyl groups; positions not stated); 125I-labelled or Alexa Fluor 488 C5 maleimide-labelled in the uptake experiments)
T1 construct: also called NAc-BSA; N-acetyl bovine serum albumin
T1 sequence (P02769 25-607 limits assumed): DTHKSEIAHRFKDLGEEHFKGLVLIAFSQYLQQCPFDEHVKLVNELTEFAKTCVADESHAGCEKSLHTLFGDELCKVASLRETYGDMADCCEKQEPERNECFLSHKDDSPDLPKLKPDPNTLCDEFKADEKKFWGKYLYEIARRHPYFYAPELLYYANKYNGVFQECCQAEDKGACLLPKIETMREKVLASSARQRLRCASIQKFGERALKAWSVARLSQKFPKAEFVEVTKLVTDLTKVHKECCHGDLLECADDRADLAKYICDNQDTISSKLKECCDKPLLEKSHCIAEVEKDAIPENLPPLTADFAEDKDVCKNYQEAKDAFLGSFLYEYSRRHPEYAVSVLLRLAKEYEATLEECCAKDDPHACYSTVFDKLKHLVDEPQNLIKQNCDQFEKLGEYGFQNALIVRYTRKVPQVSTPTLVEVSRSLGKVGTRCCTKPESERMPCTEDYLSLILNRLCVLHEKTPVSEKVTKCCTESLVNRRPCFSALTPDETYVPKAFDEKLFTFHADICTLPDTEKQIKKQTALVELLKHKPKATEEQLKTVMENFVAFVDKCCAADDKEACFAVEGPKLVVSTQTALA
Assay: ELISA, plates coated with acetylated BSA, 5 mM CaCl2

Binder	binding result
B1	no binding
B2	no binding
